Publication PMC8373069
One block for each substance: values may come before it.

Assays:
[1] = target: mouse MUTYH, hexa-histidine tag cleaved with thrombin (mouse) (UniProt Q99P21)
His6-MUTYH (mouse) = assay: single-molecule DNA tightrope; details: one tetrahydrofuran abasic site every 2 kb, EMSA: 20 mM HEPES pH 7.5, 150 mM NaCl, 5 mM DTT, 0.5 mg/ml BSA, 5% glycerol, RT, 5% native gel in 1/2x TBE at 4 C
[2] = target: T1, MUTYH (His tag cleaved) (mouse) (UniProt Q99P21); assay: EMSA; details: 20 nM MUTYH, 8 nM DNA, no UV-DDB; strand 1 position 21 = 8-oxoG (written G); strand 2 position 17 = tetrahydrofuran abasic analogue (written N), opposite the 8-oxoG; EMSA: 20 mM HEPES pH 7.5, 150 mM NaCl, 5 mM DTT, 0.5 mg/ml BSA, 5% glycerol, RT; 5% native gel in 1/2x TBE at 4 C
T1 sequence: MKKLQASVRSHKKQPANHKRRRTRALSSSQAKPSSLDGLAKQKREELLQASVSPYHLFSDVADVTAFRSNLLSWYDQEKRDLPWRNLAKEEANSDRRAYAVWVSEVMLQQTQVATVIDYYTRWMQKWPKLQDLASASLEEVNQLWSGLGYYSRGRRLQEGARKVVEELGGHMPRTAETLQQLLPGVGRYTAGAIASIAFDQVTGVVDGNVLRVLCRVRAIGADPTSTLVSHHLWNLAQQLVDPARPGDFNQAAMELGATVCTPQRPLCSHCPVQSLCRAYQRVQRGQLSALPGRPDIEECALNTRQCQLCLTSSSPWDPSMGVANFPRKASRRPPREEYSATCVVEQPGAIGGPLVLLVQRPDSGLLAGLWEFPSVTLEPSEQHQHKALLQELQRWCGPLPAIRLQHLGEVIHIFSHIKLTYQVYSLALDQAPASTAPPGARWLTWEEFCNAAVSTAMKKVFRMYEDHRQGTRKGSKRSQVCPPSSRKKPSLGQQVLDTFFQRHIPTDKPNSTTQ

MUTYH (20 nM) excision of A opposite 8-oxoG in 50 nM 37 bp duplex, with 50 nM UV-DDB against without, up to 4 h at 37°C [1]: 4 to 5 fold
Substance: UV-DDB (DDB1–DDB2 heterodimer) (from UniProt Q16531 1-1140; Q92466 1-427) (complex)

Substance: THF array (tightrope DNA)
binding signal (s (half-life on abasic sites)) (His6-MUTYH (mouse); with UV-DDB, which promotes MUTYH dissociation): 590
binding signal (s (half-life on abasic sites)) (His6-MUTYH (mouse); without UV-DDB): 8800

Substance: CCGAGTCATTCCTGCAGCGAGTCCATGGGAGTCAAAT / ATTTGACTCCCATGGANTCGCTGCAGGAATGACTCGG [THF8-oxoG37]
binding signal [2]: > 80 % DNA bound
